{"source": "IntAct's records for PubMed 31515488", "parents": {"B1": {"name": "DCC-interacting protein 13-beta (Homo sapiens), Q8NEU8 (parent)", "chain": "MPAVDKLLLEEALQDSPQTRSLLSVFEEDAGTLTDYTNQLLQAMQRVYGAQNEMCLATQQLSKQLLAYEKQNFALGKGDEEVISTLHYFSKVVDELNLLHTELAKQLADTMVLPIIQFREKDLTEVSTLKDLFGLASNEHDLSMAKYSRLPKKKENEKVKTEVGKEVAAARRKQHLSSLQYYCALNALQYRKQMAMMEPMIGFAHGQINFFKKGAEMFSKRMDSFLSSVADMVQSIQVELEAEAEKMRVSQQELLSVDESVYTPDSDVAAPQINRNLIQKAGYLNLRNKTGLVTTTWERLYFFTQGGNLMCQPRGAVAGGLIQDLDNCSVMAVDCEDRRYCFQITTPNGKSGIILQAESRKENEEWICAINNISRQIYLTDNPEAVAIKLNQTALQAVTPITSFGKKQESSCPSQNLKNSEMENENDKIVPKATASLPEAEELIAPGTPIQFDIVLPATEFLDQNRGSRRTNPFGETEDESFPEAEDSLLQQMFIVRFLGSMAVKTDSTTEVIYEAMRQVLAARAIHNIFRMTESHLMVTSQSLRLIDPQTQVSRANFELTSVTQFAAHQENKRLVGFVIRVPESTGEESLSTYIFESNSEGEKICYAINLGKEIIEVQKDPEALAQLMLSIPLTNDGKYVLLNDQPDDDDGNPNEHRGAESEA", "partner": "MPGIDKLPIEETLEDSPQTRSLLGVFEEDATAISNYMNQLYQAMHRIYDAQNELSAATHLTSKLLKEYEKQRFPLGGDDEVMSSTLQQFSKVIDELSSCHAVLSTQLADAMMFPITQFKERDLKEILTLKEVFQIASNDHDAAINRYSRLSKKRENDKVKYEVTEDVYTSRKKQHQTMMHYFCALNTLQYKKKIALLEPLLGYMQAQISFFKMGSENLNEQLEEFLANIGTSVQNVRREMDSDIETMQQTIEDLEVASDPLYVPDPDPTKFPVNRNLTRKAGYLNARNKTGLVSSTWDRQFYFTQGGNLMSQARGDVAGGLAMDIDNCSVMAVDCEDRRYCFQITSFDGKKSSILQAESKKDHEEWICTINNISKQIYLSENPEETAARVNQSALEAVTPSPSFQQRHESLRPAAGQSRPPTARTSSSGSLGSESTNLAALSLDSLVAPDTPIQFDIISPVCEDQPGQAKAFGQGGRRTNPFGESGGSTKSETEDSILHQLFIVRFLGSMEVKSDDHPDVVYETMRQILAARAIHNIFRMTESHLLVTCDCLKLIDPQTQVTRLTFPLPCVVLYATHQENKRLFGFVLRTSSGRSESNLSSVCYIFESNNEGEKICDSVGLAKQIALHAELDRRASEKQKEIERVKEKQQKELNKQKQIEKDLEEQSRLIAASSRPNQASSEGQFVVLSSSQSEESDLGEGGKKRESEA"}, "B2": {"name": "Notch homolog 2 N-terminal-like protein A (Homo sapiens), Q7Z3S9 (parent)", "chain": "MCVTYHNGTGYCKCPEGFLGEYCQHRDPCEKNRCQNGGTCVAQAMLGKATCRCASGFTGEDCQYSTSHPCFVSRPCLNGGTCHMLSRDTYECTCQVGFTGKECQWTDACLSHPCANGSTCTTVANQFSCKCLTGFTGQKCETDVNECDIPGHCQHGGTCLNLPGSYQCQCLQGFTGQYCDSLYVPCAPSPCVNGGTCRQTGDFTFECNCLPETVRRGTELWERDREVWNGKEHDEN", "partner": "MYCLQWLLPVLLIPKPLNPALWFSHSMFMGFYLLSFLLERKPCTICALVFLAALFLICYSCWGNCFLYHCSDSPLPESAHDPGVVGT"}, "B3": {"name": "Synaptotagmin-like protein 5 (Homo sapiens), Q8TDW5 (parent)", "chain": "MSKNSEFINLSFLLDHEKEMILGVLKRDEYLKKVEDKRIRKLKNELLEAKRRSGKTQQEASRVCVHCHRNLGLIFDRGDPCQACSLRVCRECRVAGPNGSWKCTVCDKIAQLRIITGEWFFEEKAKRFKQVNVLGTDVVRQSILRRSPGAEEVQSQEQTRQDAEKSDTSPVAGKKASHDGPKRKGFLLSKFRSATRGEIITPKTDTGRSYSLDLDGQHFRSLKSPPGSDRGSTGSSDLNDQEPGPRTPKSSRSNGVTPGTQSSPAPSTRTVTSVISREYGFENSMDLAAIEGTSQELTKSHRRNTSGTPSIAVSGTSLSSDQSRSELDLSESFTEDSEDTVSIRSKSVPGALDKDSLEETEESIDALVSSQLSTNTHRLASGLSTTSLNSMMSVYSETGDYGNVKVSGEILLHISYCYKTGGLYIFVKNCRNLAIGDEKKQRTDAYVKSYLLPDKSRNNKRKTKIRTGTNPEFNETLKYTISHTQLETRTLQLSVWHYDRFGRNSFLGEVEIPFDSWNFENPTDEWFVLQPKVEFAPDIGLQYKGELTVVLRYIPPEENLMLPPEQLQGNKTFKKGKKKESPVISGGILEVFIKEAKNLTAVKSGGTSDSFVKGYLLPDDSKATKHKTLVIKKSVNPQWNHTFMFSGIHPQDIKNVCLELTIWDKEAFSSNIFLGGVRLNSGSGVSHGKNVDWMDSQGEEQRLWQKMANNPGTPFEGVLMLRSSMGKCRL"}, "B4": {"name": "Transcription factor 19 (Homo sapiens), Q9Y242 (parent)", "chain": "MLPCFQLLRIGGGRGGDLYTFHPPAGAGCTYRLGHRADLCDVALRPQQEPGLISGIHAELHAEPRGDDWRVSLEDHSSQGTLVNNVRLPRGHRLELSDGDLLTFGPEGPPGTSPSEFYFMFQQVRVKPQDFAAITIPRSRGEARVGAGFRPMLPSQGAPQRPLSTFSPAPKATLILNSIGSLSKLRPQPLTFSPSWGGPKSLPVPAPPGEMGTTPSAPPQRNRRKSVHRVLAELDDESEPPENPPPVLMEPRKKLRVDKAPLTPTGNRRGRPRKYPVSAPMAPPAVGGGEPCAAPCCCLPQEETVAWVQCDGCDVWFHVACVGCSIQAAREADFRCPGCRAGIQT"}, "B5": {"name": "Tumor susceptibility gene 101 protein (Homo sapiens), Q99816 (parent)", "chain": "MAVSESQLKKMVSKYKYRDLTVRETVNVITLYKDLKPVLDSYVFNDGSSRELMNLTGTIPVPYRGNTYNIPICLWLLDTYPYNPPICFVKPTSSMTIKTGKHVDANGKIYLPYLHEWKHPQSDLLGLIQVMIVVFGDEPPVFSRPISASYPPYQATGPPNTSYMPGMPGGISPYPSGYPPNPSGYPGCPYPPGGPYPATTSSQYPSQPPVTTVGPSRDGTISEDTIRASLISAVSDKLRWRMKEEMDRAQAELNALKRTEEDLKKGHQKLEEMVTRLDQEVAEVDKNIELLKKKDEELSSALEKMENQSENNDIDEVIIPTAPLYKQILNLYAEENAIEDTIFYLGEALRRGVIDLDVFLKHVRLLSRKQFQLRALMQKARKTAGLSDLY"}, "B6": {"name": "Syntenin-2 (Homo sapiens), Q9H190 (parent)", "chain": "MSSLYPSLEDLKVDQAIQAQVRASPKMPALPVQATAISPPPVLYPNLAELENYMGLSLSSQEVQESLLQIPEGDSTAVSGPGPGQMVAPVTGYSLGVRRAEIKPGVREIHLCKDERGKTGLRLRKVDQGLFVQLVQANTPASLVGLRFGDQLLQIDGRDCAGWSSHKAHQVVKKASGDKIVVVVRDRPFQRTVTMHKDSMGHVGFVIKKGKIVSLVKGSSAARNGLLTNHYVCEVDGQNVIGLKDKKIMEILATAGNVVTLTIIPSVIYEHMVKKLPPVLLHHTMDHSIPDA", "partner": "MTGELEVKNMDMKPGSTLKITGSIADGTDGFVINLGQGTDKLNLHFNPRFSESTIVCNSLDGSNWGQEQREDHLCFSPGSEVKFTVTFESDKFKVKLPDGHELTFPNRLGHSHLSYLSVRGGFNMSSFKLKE"}, "B7": {"name": "Breast cancer metastasis-suppressor 1 (Homo sapiens), Q9HCU9 (parent)", "chain": "MPVQPPSKDTEEMEAEGDSAAEMNGEEEESEEERSGSQTESEEESSEMDDEDYERRRSECVSEMLDLEKQFSELKEKLFRERLSQLRLRLEEVGAERAPEYTEPLGGLQRSLKIRIQVAGIYKGFCLDVIRNKYECELQGAKQHLESEKLLLYDTLQGELQERIQRLEEDRQSLDLSSEWWDDKLHARGSSRSWDSLPPSKRKKAPLVSGPYIVYMLQEIDILEDWTAIKKARAAVSPQKRKSDGP", "partner": "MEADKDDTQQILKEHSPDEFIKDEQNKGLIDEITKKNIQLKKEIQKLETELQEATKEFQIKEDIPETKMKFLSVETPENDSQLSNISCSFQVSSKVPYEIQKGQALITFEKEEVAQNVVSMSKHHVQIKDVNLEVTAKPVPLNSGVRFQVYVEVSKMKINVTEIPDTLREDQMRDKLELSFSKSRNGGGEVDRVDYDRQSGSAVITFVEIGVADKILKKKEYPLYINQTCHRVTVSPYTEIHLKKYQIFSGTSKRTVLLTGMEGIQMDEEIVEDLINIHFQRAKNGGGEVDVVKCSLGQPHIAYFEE"}, "B8": {"name": "Macrophage scavenger receptor types I and II (Homo sapiens), P21757 (parent)", "chain": "MEQWDHFHNQQEDTDSCSESVKFDARSMTALLPPNPKNSPSLQEKLKSFKAALIALYLLVFAVLIPLIGIVAAQLLKWETKNCSVSSTNANDITQSLTGKGNDSEEEMRFQEVFMEHMSNMEKRIQHILDMEANLMDTEHFQNFSMTTDQRFNDILLQLSTLFSSVQGHGNAIDEISKSLISLNTTLLDLQLNIENLNGKIQENTFKQQEEISKLEERVYNVSAEIMAMKEEQVHLEQEIKGEVKVLNNITNDLRLKDWEHSQTLRNITLIQGPPGPPGEKGDRGPTGESGPRGFPGPIGPPGLKGDRGAIGFPGSRGLPGYAGRPGNSGPKGQKGEKGSGNTLTPFTKVRLVGGSGPHEGRVEILHSGQWGTICDDRWEVRVGQVVCRSLGYPGVQAVHKAAHFGQGTGPIWLNEVFCFGRESSIEECKIRQWGTRACSHSEDAGVTCTL"}}}
{"variants_of": "B1", "settings": "with dp13a_human APPL1, Q9UKG1"}
{"variant": "K70R", "effect of a mutation on the interaction": "with no effect"}
{"variants_of": "B2", "settings": "with blcap_human BLCAP"}
{"variant": "R74Q", "effect of a mutation on the interaction": "with no effect"}
{"variant": "A115T", "effect of a mutation on the interaction": "with no effect"}
{"variants_of": "B3", "settings": "with cep70_human CEP70, Q8NHQ1"}
{"variant": "R160H", "effect of a mutation on the interaction": "with no effect"}
{"variant": "D400N", "effect of a mutation on the interaction": "with no effect"}
{"variant": "S369P", "effect of a mutation on the interaction": "with no effect"}
{"variants_of": "B4", "settings": "with dnja3_human DNAJA3, Q96EY1"}
{"variant": "A279V", "effect of a mutation on the interaction": "with no effect"}
{"variants_of": "B5", "settings": "with hgs_human HGS"}
{"variant": "M167I", "effect of a mutation on the interaction": "with no effect"}
{"variants_of": "B6", "settings": "with leg2_human LGALS2, P05162"}
{"variant": "R223C", "effect of a mutation on the interaction": "disrupting interaction strength"}
{"variants_of": "B7", "settings": "with nmi_human NMI"}
{"variant": "S7G", "effect of a mutation on the interaction": "with no effect"}
{"variants_of": "B8", "settings": "with sc22a_human SEC22A"}
{"variant": "P275A", "effect of a mutation on the interaction": "with no effect"}
